Test results as given in PMC5785340, “MaRAP2‐4, a waterlogging‐responsive ERF from Mentha, regulates bidirectional sugar transporter AtSWEET10 to modulate stress response in Arabidopsis”.

B1: AtSWEET10 promoter probe with overlapping DRE and GCC (dsDNA)
DNA 1: ATGATTCACGGCCGCCGACGCCGTTCGTTACCA
DNA 2: TGGTAACGAACGGCGTCGGCGGCCGTGAATCAT
B2: AtSWEET10 promoter probe with DRE only (dsDNA)
DNA 1: AATTTCGCATGCCGACATCAATGTGCGCACAACA
DNA 2: TGTTGTGCGCACATTGATGTCGGCATGCGAAATT

Target: MaRAP2-4 (Mentha arvensis, UniProt A0A1Z2X6Y3 1-315)
Assay: EMSA; DIG Gel Shift Kit 2nd Generation (Roche), manufacturer's protocol; buffer, pH and temperature not stated
Conditions: protein: recombinant; tags: GST (pGEX-4T2); label: DIG

Sequence of MaRAP2-4 (A0A1Z2X6Y3 entry or part of it): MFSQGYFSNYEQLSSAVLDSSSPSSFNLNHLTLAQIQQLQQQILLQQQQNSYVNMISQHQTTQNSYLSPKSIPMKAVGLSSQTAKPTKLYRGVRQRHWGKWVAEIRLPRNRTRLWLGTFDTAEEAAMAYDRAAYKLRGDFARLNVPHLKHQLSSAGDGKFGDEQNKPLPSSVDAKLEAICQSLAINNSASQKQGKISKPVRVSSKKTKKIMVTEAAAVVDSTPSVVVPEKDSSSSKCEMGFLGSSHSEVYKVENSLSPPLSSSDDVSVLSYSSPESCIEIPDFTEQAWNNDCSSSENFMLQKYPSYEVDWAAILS

Binder | binding result
B1 | binds
B2 | binds
